# Results reported in US20050032689A1, “Methods for treatment or diagnosis of disease or disorders associated with an APB domain” (New York University, priority 1994, published 2005).
# B1: Shc 1-209: Shc amino terminus, first 209 amino acids of murine p52Shc, generated as a GST fusion protein (protein, UniProt P98083 1-209, looked up, fragment)
# chain: MDLLPPKPKYNPLRNESLSSLEEGASGSTPPEELPSPSASSLGPILPPLPGDDSPTTLCSFFPRMSNLKLANPAGGRLGPKGEPGKAAEDGEGSAGAALRDSGLLPLLQDMNKLSGGGGRRTRVEGGQLGGEEWTRHGSFVNKPTRGWLHPNDKVMGPGVSYLVRYMGCVEVLQSMRALDFNTRTQVTREAISLVCEAVPGAKGATRRR
# modifications: GST fusion
# notes: Shc amino terminus, first 209 amino acids of murine p52Shc, generated as a GST fusion protein
# Tests used:
# [1] = biological target: T1, EGF receptor (Homo sapiens, UniProt P00533); experiment: Binding of GST fusion proteins to immunoprecipitated EGF receptor phosphorylated in vitro, anti-GST blot; settings: immunoprecipitated receptor from unstimulated cells, with or without Mn2+ and ATP
# T1 construct: expressed in transfected cells; host or cells: HER14 (NIH 3T3 cells expressing human EGF receptor)
# Experimental: FIGS. 2A and 2B. Association of GST-Shc 1-209 with the EGF Receptor (EGFR). A, HER14 lysates from either EGF-stimulated (+) or unstimulated (−) cells (5×10^6 cells) were incubated with 3 μg of GST fusion protein immobilized on glutathione-agarose beads. The bound proteins were washed, subjected to SDS-PAGE, transferred to nitrocellulose and immunoblotted with anti-EGF receptor antibody, anti-C (anti-EGFR). HER14 lysate (4×10^5 cells) was run directly on the gel in lanes 5 and 6. B, unstimulated HER14 lysates (5×10^6 cells) were immunoprecipitated with anti-EGFR antibody (mAb 108). The immobilized receptor was then phosphorylated (+) by the addition of 5 mM MnCl2 and 50 μM ATP or left unphosphorylated (−) by adding MnCl2 alone. Bacterial lysates containing 5 μg of GST, GST-Grb7, and GST-Shc 1-209 were then diluted in 1 ml of 1% Triton X-100 lysis buffer, added to the immobilized receptor and incubated at 4° C. for 90 min. The bound proteins were washed and together with 40 μl of the post-binding supernatant separated by SDS-PAGE and transferred to nitrocellulose. […]
# Binding Studies—GST fusion proteins were expressed using standard techniques (Ausubel, F. M., et al. Current Protocols in Molecular Biology, (1992) Wiley Interscience, New York). Protein concentration was determined by SDS-PAGE (polyacrylamide gel electrophoresis) using bovine serum albumin as a standard. […]
# [2] = biological target: T1, EGF receptor; experiment: Binding of GST fusion proteins on glutathione-agarose beads to EGF receptor from HER14 cell lysates, immunoblot
# Experimental: FIGS. 2A and 2B. Association of GST-Shc 1-209 with the EGF Receptor (EGFR). A, HER14 lysates from either EGF-stimulated (+) or unstimulated (−) cells (5×10^6 cells) were incubated with 3 μg of GST fusion protein immobilized on glutathione-agarose beads. The bound proteins were washed, subjected to SDS-PAGE, transferred to nitrocellulose and immunoblotted with anti-EGF receptor antibody, anti-C (anti-EGFR). HER14 lysate (4×10^5 cells) was run directly on the gel in lanes 5 and 6. B, unstimulated HER14 lysates (5×10^6 cells) were immunoprecipitated with anti-EGFR antibody (mAb 108). The immobilized receptor was then phosphorylated (+) by the addition of 5 mM MnCl2 and 50 μM ATP or left unphosphorylated (−) by adding MnCl2 alone. Bacterial lysates containing 5 μg of GST, GST-Grb7, and GST-Shc 1-209 were then diluted in 1 ml of 1% Triton X-100 lysis buffer, added to the immobilized receptor and incubated at 4° C. for 90 min. The bound proteins were washed and together with 40 μl of the post-binding supernatant separated by SDS-PAGE and transferred to nitrocellulose. The bound fractions (left panel) and supernatants (right panel) were immunoblotted with anti-GST. FIGS. 4A, 4B, 4C and 4D. Binding of Shc fragments to growth factor receptors. A, schematic diagram illustrating the Shc fragments used in binding studies. Full length murine p52^shc is indicated in (i) while (ii)-(vi) were generated as GST fusion proteins for use in receptor binding studies. B, association of various GST fusion proteins with activated EGF receptor (EGFR). Binding was performed as in FIG. 2A with the exception that all lysates were stimulated with EGF. All studies used 3 μg of fusion proteins except for the Shc SH2 where 10 μg was used. Immunoblotting was performed with anti-phosphotyrosine. C, binding of Shc fusion proteins to NIH 3T3 cells expressing a HER1/2 chimera. This chimera consists of the EGF receptor extracellular binding domain and the intracellular region of HER2/neu. After stimulation of these cells with EGF (200 ng/ml) lysates were prepared and binding as well as blotting studies were performed as in B using anti-phosphotyrosine antibody. D, binding of Shc 1-209 to TrkA. Beads containing 10 μg of GST fusion proteins Shc 1-209, phospholipase C-γ (PLC-γ) SH2 (contains both N and C SH2 domains), or GST alone were added to lysates from 2×10^7 PC12 cells stimulated with 50 ng/ml nerve growth factor (lanes 1, 2, and 4). The binding of the same amount of lysate to 2 μg of anti-TrkA antibody is shown as a positive control and to indicate the position of TrkA on the blot (lane 3). Otherwise, the binding and blotting were performed as in B using anti-phosphotyrosine antibody. […]
molecule,measurement,setting,value
B1,binding to EGF receptor phosphorylated in vitro,[1],bound directly to phosphorylated but not non-phosphorylated receptors
same,EGF receptor binding compared with the Shc SH2 domain,"[2]; 3 μg fusion protein vs 10 μg Shc SH2, EGF-stimulated lysates",comparable or superior
same,binding to EGF receptor,"[2]; GST fusion protein, lysates of EGF-stimulated or unstimulated cells",bound only to the activated tyrosine-phosphorylated receptor
